From the DeepSol protein solubility set

assay: soluble on expression in E. coli; label from the status in PepcDB or PDB records

| Sequence | soluble on expression in E. coli |
| --- | --- |
| MFMEFSAGLMPLETALTQMLSRITPLTAVETLPLVNCFGRILATDIVSPLDVPGFDNSAMDGYAVRVADLSADKPLPVAGKAFAGQPYQGEWPAGTCIRIMTGAPVPAGCEAVVMQEQTEQTDDGVRFTADVRCGQNIRRRGEDIRQDAVVFPAGTRLTTAELPVLASLGIADAQVVRKVRVALFSTGDELQLPGQPLEAGQIYDTNRLTIHLMLQQLGCEVINLGIIPDDPGKLRAAFIDADSQADVVISSGGVSVGEADYTKTILEELGEIAFWKLAIKPGKPFAFGKLSNSWFCGLPGNPVSAALTFYQLVQPLLAKLGGNTASAVPPRQRVRTASRLKKTPGRLDFQRGILQRSANGELEVTTTGHQGSHIFSSFSLGNCFIVLERERGNVEPGEWVEVEPFNALFGGL | not soluble |
| MLKDEYGRVVTNLRIAVTKKCNLRCFYCHKEGESNPGEEISAERIVEIARAFKELGVRKLKITGGEPLLRKDLPDIILNLPEFEEISMTTNGILLEKYAEELRECGLSRVNVSLDTLDAEKYRWITGGGEVQKVVNGIEKACEVGLTPVKINMLVLGGVNDNEVDELLEFTNSFNRGNTKAILQVIELVPFPGFEKYFFDISTIEEKYARMATQRRVRAMHRRTQYFTPKGVIEFVKPMDNTAFCMHCNRMRVTSDGKLKPCLLRNETITIDGKHGEELARAIIETVRKREPYFKG | not soluble |
| MVQHLTAEEIIQYISDAKKSTPIKVYLNGNFEGITYPESFKVFGSEQSKVIFCEADDWKPFYEAYGSQFEDIEIEMDRRNSAIPLKDLTNTNARIEPGAFIREQAIIEDGAVVMMGATINIGAVVGEGTMIDMNATLGGRATTGKNVHVGAGAVLAGVIEPPSASPVIIEDDVLIGANAVILEGVRVGKGAIVAAGAIVTQDVPAGAVVAGTPAKVIKQASEVQDTKKEIVAALRKLND | not soluble |
| MKGLYPESVISRFDFAVTEDNKIKMLEFNSDTPTFIVECFQMNGKVCGNLGYDDPNSDQERLLSSGVTKAVMEATKGLDNPNVVFTAHHEHIEDWNTTMYLSQLCHVENKVVPMSELRITKDALVDKDGAKIDVLYRQTYPIEDLIEDQDPETGDLVGVELLQLVKAGKLFIINPLSAFLLQPKSIQCLIWGLAEEEAFYTNEEQQWIKEYMLPTYLEPDLFLGKGSFVQKPSFGREGDTITIRDKDENIMLQNAHQTYKASLPIFQKYIELPVVSLETEKGIEKLSYVFGSFLIAGKASSIGIRAGEKITGNESYYLPVGIKRRGKND | not soluble |
| TPTRFLVAFDGSATSRKTVEMVSRSPLLQGMQAHVLTAGSDAGEARQALQWAREQLAQGGFDAITHHAAERPADALAAYAGQHGIDMLVMGAYGHSRIRQLVLGSTTTEILSRVSLAVLILR | not soluble |
| MPSWREKHEKIVQSKILVIGAGGIGCELLKNLAVTGFRKVHVIDLDTIDISNLNRQFLFRKEHVSSSKAATATQVVKQFCPQIELTFDHDSIFEKKYNMEFFQAYDIVLNALDNRAARNYVNRMCHAANRPLIDSGSGGYFGQVSVIMRGKTECYECVDKPVQQTTYPGCTIRNTPSEHIHCTVWAKHVFNQLFGEVDIDDDVSPDMDAVDPDNTEAVTTEKEKEAMKEEPAPVGTRQWAESVDYDAAKVFDKLFLHDIEYLCKMEHLWKQRKRPSPLEFHTASSTGGEPQSLCDAQRDDTSIWTLSTCAKVFSTCIQELLEQIRAEPDVKLAFDKDHAIIMSFVAACANIRAKIFGIPMKSQFDIKAMAGNIIPAIASTNAIVAGIIVTEAVRVIEGSTVICNSSIATTQSNPRGRVRFYGFFN | not soluble |
| MGSDKIHHHHHHMQIDDFASNLRLLCSTESSVSAVCRQIGVNRQQFSKYLSGAARPSPSNMRKIAVHFGVRPAEFMLPADEFESHPSVAGKLVGPSVTHSDRDGFESAFRGQTIPLRRYLGYYLSYFLTQSWENSIICAIVRLDEVNGLIRCRSLERSIDPDDGSLYLSKYDGRVAMLGNRIFVMEYQTLARDALVETVLYPVGRGQLQYLRGTTFGITSRQRTPFTSPVVWRYLDDFPTLRDVMRKVGRYDINSAKLDPTARSILLGGHNKGTD | not soluble |
| MSLDTTPEHLVGTDAETIDLSFAAPAAPVEILHAAFATALEQLPRHFERHGYDRYGTAELREAVARWYQRRGLPTRPDHILITNGAQHALALLTRVLLSPRDKVLIDHPTYPHAITTFTQARARLLPVAVTSSGWDTEQLQAAGQAANLAYLIPDFHNPTGMCMPTSVRQQLRLACPTVVDETMTDLALDVPSPEPLALHMPTAISIGSVSKSVWGGLRTGWIRALPSLLERVEQARPTTDLGTPVVEQLATAVLLNEHQTQRPDTLQQLRSQRDALWQALTEHLPNVHAPQPAGGVTLWAAFPGPVSSRLAAMAPDHGVTIAAGPRFGIGGAFERNIRLPYTLPSSQLAQAIRRLAQAAQALAQGATGTEGHHHHHH | not soluble |
| GTKASKSGVPVTQTQTAGADTTAEKCKGKGEKDCKSPDCKWEGGTCKD | soluble |
| MILAIDLGTSGAKAAIIDSAGAVHEQTFVPYSTTKLPNGGVEQDPMQWVSAARQAVTRLPRSYSVVSFTGQMQDLICLDRAGRPLGQALLYNDARAAAEAARLNTVVPEWKDITGNRQTATSTAAMWLRLMEQSD | not soluble |
| SGGAVSAGEDNDELIDNLKEAQYIRTELVEQAFRAIDRADYYLEEFKENAYKDLAWKHGNIHLSAPCIYSEVMEALDLQPGLSFLNLGSGTGYLSSMVGLILGPFGVNHGVELHSDVIEYAKQKLDFFIRTSDSFDKFDFCEPSFVTGNCLEISPDCSQYDRVYCGAGVQKEHEEYMKNLLKVGGILVMPLEEKLTKITRTGPSAWETKKILAVSFAPLIQPCHSESGKSRLVQLRSPSFVQGWSVVVLSQLTAASTFQAEAILPSQSPTWLRLQVLATMPN | not soluble |
| MKIGIIAAMPEELAYLVQHLDNTQEQVVLGNTYHTGTIASHEVVLVESGIGKVMSAMSVAILADHFQVDALINTGSAGAVAEGIAVGDVVIADKLAYHDVDVTAFGYAYGQMAQQPLYFESDKTFVAQIQESLSQLDQNWHLGLIATGDSFVAGNDKIEAIKSHFPEVLAVEMEGAAIAQAAHTLNLPVLVIRAMSDNANHEANIFFDEFIIEAGRRSAQVLLAFLKALD | soluble |
| MTVRSRFFTEAEGKAVGVENAAAKGDVLLVCEHASATIPQKYGTLGLSADVLSSHAAWDPGALAVARLLSEKFHATLVYQRFSRLVYDCNRPPESPSAMPVKSEIYDIPGNFDLDEAERFARTSALYVPFHDRVSEIIAERQAAGRKVVVVTIHSFTPVYHGRFREVEIGILHDNDSRLADAMLAGAEGASLTVRRNDPYGPEDGVTHTLRLHALPDGLLNVMIEIRNDLIANEGEQAAIAGFLHELMGKALSSIEE | soluble |
| MSLSEKIIQLNEGIIKEELKNLVRSSVEETLNHLLDKEAEDLTNAAKYERTQERQGYRSGHYTRSLQTTSGEVTLRVPKLKGVPFETAIIERYRRRESSVEEALIEMYLAGVSVRRVEDITEALWGTKVSPGTISELNKKAYVHIENWRNRPLQDGKYPYVYVDGIYLKRNWGGEYENVSILVAIAVNQEGYREVIGAREGMKEDKASWKEFLQWLKGRGLDGVKLIVGDKCLGMLESVNEVFPEAKYQRCTVHFYRNIFSVTPRSKMKLVAKMLKAIHAQESKASAREKAKLVAEELKSMKLREAAKKLEDGIEETLTYMEFPYEHWTRIRTNNTIERLNREIRRRTRVVGTFPDGNSALMLVCARLRHVAGTQWGSKKYLNMKHLENMDSDEGHHHHHH | soluble |
| SSSEGFICPQCMKSLGSADELFKHYEAVHDAGND | soluble |
| MNKIFLTAAALVLGACGFHLKGADGISPPLTYRSWHIEGGQALQFPLETALYQASGRVDDAAGAQMTLRIDSVSQNKETYTVTRAAVINEYLLILTVEAQVLKRGEPVGKPMTVSVRRILDYADNEILGKQEEEETLWAEMRQDVAEQIVRRLTFLKAELEHHHHHH | soluble |
| MGSDKIHHHHHHMTDKMQSLALAPVGNLDSYIRAANAWPMLSADEERALAEKLHYHGDLEAAKTLILSHLRFVVHIARNYAGYGLPQADLIQEGNIGLMKAVRRFNPEVGVRLVSFAVHWIKAEIHEYVLRNWRIVKVATTKAQRKLFFNLRKTKQRLGWFNQDEVEMVARELGVTSKDVREMESRMAAQDMTFDLSSDDDSDSQPMAPVLYLQDKSSNFADGIEDDNWEEQAANRLTDAMQGLDERSQDIIRARWLDEDNKSTLQELADRYGVSAERVRQLEKNAMKKLRAAIEA | not soluble |
| MLTALKTDTGKIRQHNEDDAGIFKGKDEFILAVVADGMGGHLAGDVASKMAVKAMGEKWNEAETIPTAPSECEKWLIEQILSVNSKIYDHAQAHEECQGMGTTIVCALFTGKTVSVAHIGDSRCYLLQDDDFVQVTEDHSLVNELVRTGEISREDAEHHPRKNVLTKALGTDQLVSIDTRSFDIEPGDKLLLCSDGLTNKVEGTELKDILQSDSAPQEKVNLLVDKANQNGGEDNITAVLLELALQVEEGEDQC | soluble |
| QRSHVASCSHSLSVIQFNLFYENSDINQFINYLLRHPADLVVMQELTPRVGSLLHMLDDVYPHYHGGQRDVGYPSNLMILSRHPITEVSVYRAPNGQEVIRAVWLPKGQAPITLFAAHPPSPRTSELWHQRNALVRTIETLTALYPEPEVLVVGDFNLSSVSPRFSTLFPSFQTAPVTSWPTNIKGINVPEPMMIGIDHLWLKSEQGQRIICSRESSALPQGSDHRMVTTQIGVHIP | not soluble |
| MSLRKFIDLHLHLDGSVPVSTVKKLMQEHDLPIPTDQELRQELSVDSSCKSLDQFLEKFALPNKLMQTRHDLETIVYDLLTELKAQGLVYAEIRFAPQLHTKEGLTQEDAIKAAISGLNKFLYDQKEKNDSPELHAGLILCLMRFSNNQKENIETVELAKKFLNKGVVGLDLAGAEGPIPNIKYKSFFNQAQQLGVPYTIHAGEADGPDSIRQALAMGAKRIGHGIRCTEDTQLTQELIDQQIVLECCATSNMNTKAFDQIDSYPIKKLLHKGMKVTLNSDDMTVSDTNLLHEYKVLEKRTDLTPEEETTLYLNAVDAAFTTPDEKIRLRAFLQKEGHHHHHH | soluble |
| MVEVRYLGHSAVLLTDGKTRIVIDPFLTGNPMAALGVGEVQADLILVTHAHGDHFGDSVALSKKGGVVVSTFEIATYAEKHGAKSVPMNLGGTYRFEGGWLKWVPAWHSSSFPDGTYGGMPMGVVVELGGKRIYHAGDTALFSDMRLIGEMGLDLALLPIGDHFTMGPEDALKALELLRPKKVVPIHYNTFPPIRQDGEAFAQRAREKGVEGHALKPGEVLRLD | soluble |
| MDILKKIEKYREEEQRLKWEGTFADYLEIIKENPMVAQSAHSRVFNMIKDSGIEEIDGRKKYSFFDRELFGLEESLERLVEEYFHPAAKRLDVRKRILLLMGPVSGGKSTLVTMLKKGLEAYTLTDNGAVYAIKGCPMHEDPLHLIPHHLRDDFYREYGIRIEGSLSPLNVMRLEEEYGGRIEDVKVERIFFSEDKRTGIGTFSPSDPKSQDIADLTGSIDFSTIAEYGSESDPRAYRFDGELNKANRGMMEFQEMLKCDEKFLWHLLSLTQEGNFKAGRFALISADELIVAHTNETEYRSFISNKKNEALHSRIIVMPVPYNLKVSEEERIYEKMIAESDVADVHIAPHTLKVAAMFSILTRLKEPKRSD | not soluble |
| MSSRKVSRAHYDEDELASAANMSLVAEGHFRGMKELLSTMDLDTDANTIPELKERAHMLCARFLGGAWKTVPLEHLRISRIKGGMSNMLFLCRLSEVYPPIRNEPNKVLLRVYFNPETESHLVAESVIFTLLSERHLGPKLYGIFSGGRLEEYIPSRPLSCHEISLAHMSTKIAKRVAKVHQLEVPIWKEPDYLCEALQRWLKQLTGTVDAEHRFDLPEECGVSSVNCLDLARELEFLRAHISLSKSPVTFCHNDLQEGNILLPKASSGNIRMPSLSDETQALGNSLSAFNPADPRLVLIDFEYASYNYRAFDFANHFIEWTIDYDIDEAPFYKIQTENFPENDQMLEFFLNYLREQGNTRENELYKKSEDLVQETLPFVPVSHFFWGVWGLLQVELSPVGFGFADYGRDRLSLYFKHKQLLKNLASHQ | soluble |
